Measured values: doi:10.1101/2025.03.05.641625

Legend:
[1] = molecular target: SARS-CoV-2 core RTC with nsp13.1 bound (RTC-nsp13.1) (SARS-CoV-2) (UniProt P0DTD1); assay: magnetic tweezers
[2] = molecular target: SARS-CoV-2 core replication-transcription complex (nsp12-polymerase, nsp7, nsp8) (SARS-CoV-2) (UniProt P0DTD1); assay: magnetic tweezers

Substance: SARS-CoV-2 nsp13-helicase (wild type) (from UniProt P0DTD1 5325-5925) (enzyme)
- Ka [1]: 4.6e+08 M⁻¹
- Ka [2]: 2.3e+08 M⁻¹
